Laboratory results reported in the supplement of paper PMC10126150.
± gives the standard deviation of the averaged measurements.

Tested on: ATP
Experiment: switch fluorescence ratio, 500 uM ATP over buffer (Cy3 cluster intensity, sum of 5 cycles each) (fold (ratio)); higher = stronger signal-on switching upon ATP binding; sequences stand for … in TCGTCGGCAGCGTCAGATGTGTATAAGAGACAGTTTTTTTTTTTTTTTTTTTTTTTTT…TC
Settings: aptamer strand: ATP DNA aptamer (quencher-CACCTGGGGGAGTATTGCGGAGGAAGG + anchor), 100 nM annealed; ATP concentration: 500 uM
How it was run: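 Cy3-labelled switching-strand clusters on a modified Illumina MiSeq flow-cell were annealed to 100 nM quencher-labelled ATP aptamer and imaged first in selection buffer, then after 15 min with 500 uM ATP at 22 °C. NaOH stripping and re-annealing separated each of five buffer/ATP cycles, and clusters outside 100-1000 RFU were excluded. The fluorescence ratio sums target-cycle Cy3 intensity over buffer-cycle Cy3 intensity per cluster and averages it per switch-domain sequence.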
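Also: ATP exposure 15 min at 22 °C before imaging.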

Sequence	switch fluorescence ratio
GGGTAGGCAG	1.18 ± 0.25
GCTGCGAGGT	1.012 ± 0.0056
TCGGTGGGGC	1.01 ± 0.019
TATCTATCAT	0.969 ± 0.024
TCAGGCTAGG	1.02 ± 0.028
GGGTTAGCTT	0.98 ± 0.031
GCGGGCTGGA	1.01 ± 0.044
TTTTCTGTCC	1.03 ± 0.012
TTGGAGTGGT	1.03 ± 0.013
TTGAACGAGC	0.99 ± 0.04
TAAGTTGACT	1.06 ± 0.078
CAGGATAACT	1 ± 0.027
AAATAATTGC	1.01 ± 0.038
TGGCACTTTT	1.006 ± 0.0063
AATGGTAATT	0.995 ± 0.039
GAACGTACAA	1.587 ± 0.015
TGGGGAGGGC	1 ± 0.035
GGGGATGCGG	1.02 ± 0.021
TGGGGATACC	0.987 ± 0.035
GTTAGAAAAT	1.01 ± 0.03
AAATTGAGGA	1.017 ± 0.0096
ATATGGAATT	0.977 ± 0.0046
TTGTGTGGCA	1.02 ± 0.054
AGGGGGATCA	1.011 ± 0.0061
AAAGCGGGGC	1.02 ± 0.015

Sequence	switch fluorescence ratio
TACAAAGAGT	1.04 ± 0.025
AGCCCTAAGG	0.979 ± 0.045
GTTTCCTATT	0.959 ± 0.013
ATTGAGGGTT	0.985 ± 0.019
ATAGTAATCG	0.988 ± 0.064
AAATGGTTTT	1 ± 0.024
TTGCCGGGGT	1.1 ± 0.16
TTTTCTGTTT	0.996 ± 0.047
CAGCTTTTGG	0.993 ± 0.039
TCTGGTGCAT	1.17 ± 0.14
TTTGAAAATT	0.99 ± 0.06
TTTTTTTGAT	1.16 ± 0.53
GTTGGTGTTG	0.998 ± 0.032
CCTTGTTTAA	1.01 ± 0.086
TTTTGGTGCG	0.986 ± 0.041
GGATGAAGGA	0.978 ± 0.038
TGGAATTGGT	1.02 ± 0.032
GATTTTGGTG	0.971 ± 0.023
TTAGTGCGGA	0.994 ± 0.012
ACCAGTAGAC	1.038 ± 0.0074
TTGTAGGATA	0.994 ± 0.012
AGACGGGGGC	0.978 ± 0.12
AATTCGGCTT	0.978 ± 0.0088
GACTTTGGGG	1 ± 0.013
GTACGAGTCC	1.01 ± 0.015

Sequence	switch fluorescence ratio
AAGTTGTGA	0.973 ± 0.035
TAAATTTGAC	0.996 ± 0.036
GTAATTAATT	0.978 ± 0.025
GTAGTCGGAT	1.002 ± 0.0021
GGGTAATTAC	1.048 ± 0.0053
TAGACTCGGT	0.993 ± 0.053
TGTAATCTTC	1.01 ± 0.016
TGGGGGCTTG	0.993 ± 0.024
TAGGCTGCGA	1.04 ± 0.025
TAATAAGGGG	1.02 ± 0.028
TCCGAGGGGT	1.67 ± 0.91
ACAGGATGGT	0.998 ± 0.024
ATGGTCGTCG	0.9939 ± 0.0035
GGATTAAATG	0.982 ± 0.037
ATTAGAATTA	0.982 ± 0.062
AAAGTGGGGA	1.03 ± 0.038
GGTTGATCCG	1.01 ± 0.0092
TACCCATTAC	1.72 ± 0.041
TTTAATGGAG	1.02 ± 0.034
GGGTGCGGCT	1.11 ± 0.14
CACTCGGAAT	1.19 ± 0.03
CGTGATGGGG	1.04 ± 0.071
TAAGATCGGC	0.974 ± 0.017
TTAAAAATGC	1.02 ± 0.011
AGGCGGGTGA	1.02 ± 0.013

Sequence	switch fluorescence ratio
TAATTTTCCG	1.02 ± 0.043
ATTGTGCGTA	0.9711 ± 0.0057
GACTAGGGGT	1.005 ± 0.0078
GACGTTCTGT	1.03 ± 0.063
GAACGAGGGT	0.9676 ± 0.0013
GTTTTGCGTT	0.988 ± 0.028
GGGTCTTCTC	1.01 ± 0.053
ATGTGGTCAT	1.008 ± 0.0065
TTTTATGTTG	1.01 ± 0.04
TAAGGTTGGT	0.987 ± 0.028
TTTTTAAACG	0.995 ± 0.014
CGGAGGAGGG	1.21 ± 0.3
GGTGGAATCT	1.02 ± 0.052
CCGTTTGTTT	1.005 ± 0.005
TTGGCTTAGG	1.05 ± 0.096
AAGCCCGCAC	1.879 ± 0.0067
GGAGAGGCGT	1 ± 0.013
TAATGGAAAA	1.15 ± 0.28
CTTAGATATT	1.01 ± 0.045
GTGTTTTGGC	1.02 ± 0.029
CGGGCGGGAT	1.04 ± 0.029
CTGACTCGGT	1.12 ± 0.013
ACCGATTGTT	1.017 ± 0.0016
TTACTTTGGG	0.9892 ± 0.0065
AAAACCGGGA	1.32 ± 0.52

Sequence	switch fluorescence ratio
ATCGGGGAGA	0.997 ± 0.017
AGAGTATGAA	1 ± 0.032
ACTGTTTGGA	0.995 ± 0.0037
TAATCGACTT	1.02 ± 0.014
TAGGTACTGG	1.04 ± 0.014
AATTTTTAGG	0.98099 ± 2.5e-05
TTCCGAGTTC	1.15 ± 0.13
GGTCAAACCA	1.03 ± 0.0097
TAAATCAGAG	0.99 ± 0.03
GATTTCAAAC	0.9817 ± 0.0045
TAACGGTATA	1.11 ± 0.058
GGTTCGTCGT	0.987 ± 0.02
TCATTCGTCC	1.099 ± 0.0056
TCTAGACTCA	1.18 ± 0.29
TACCGGGCAC	1.11 ± 0.03
GGAGACAGGA	1.04 ± 0.012
TTCGGAGCTG	1.07 ± 0.14
TTGGGACTTC	1.03 ± 0.012
GGTGTGCCAT	0.9897 ± 0.0069
TGGCACGACA	1.09 ± 0.042
GGGGGAGAG	0.979 ± 0.034
TGTAGGGCGA	0.99 ± 0.034
ATCGTGATGG	1.03 ± 0.04
GTTTAAACGC	1.01 ± 0.026
CATAGGAGAC	1 ± 0.017

Sequence	switch fluorescence ratio
CACTTTCACA	1.17 ± 0.055
TTGGGGGATT	1 ± 0.022
AATGTTATCT	0.994 ± 0.057
TTCCGGCGCT	3.42 ± 1.1
GTTAATTGAT	1 ± 0.027
CTTCATAGAT	1.02 ± 0.016
TCAATTTGGC	1.02 ± 0.039
GCTAACTAGG	1.038 ± 0.0087
CTGAGGGGGC	1.02 ± 0.016
GGGATCATGT	0.98 ± 0.014
TAGTTGACAA	0.99 ± 0.0024
GTATGCCTTC	1 ± 0.032
TAGCAGTGGG	0.973 ± 0.015
TACTTGATCT	1.001 ± 0.0033
GGGGGGAGAA	1.01 ± 0.039
ATGTAGTTGG	1 ± 0.016
AATCAGTTTG	1.022 ± 0.0094
TTAAAAAAGG	1.01 ± 0.087
GTATTGGTCG	1.058 ± 0.0091
ATTATGGGTC	1 ± 0.043
ATAAAAAGGG	1 ± 0.029
ACTACTGGCT	1.047 ± 0.0089
GAGGTCAGTG	0.974 ± 0.019
AACCAGGACT	1.02 ± 0.013
GCTTTGGTGA	0.991 ± 0.019

Sequence	switch fluorescence ratio
ACAGTTGTTA	0.98717 ± 0.00059
GTTCTATCAG	0.995 ± 0.09
AAAGATGAAT	1.04 ± 0.011
CGTTGAGGAA	0.9853 ± 0.0038
TTTGGGTTTT	1.01 ± 0.054
TTTTTTATA	0.996 ± 0.032
ATCAAATCGA	1 ± 0.043
ATGGGGGCAC	0.971 ± 0.032
GGGTTTAGAT	0.9854 ± 0.0059
TTGGATGCGG	1.0022 ± 0.00011
AGCTCATGTG	0.988 ± 0.026
ATTCAGCCGC	1.62 ± 0.083
GAATCGTAGC	1 ± 0.022
TAAAATGTTT	0.998 ± 0.013
TAGGAAGGCG	1.01 ± 0.047
TGTTTCTCGT	1.01 ± 0.015
CAGGATGTAT	0.9852 ± 0.0029
ATTTTGCTTT	0.965 ± 0.021
TTTGGTTGCT	0.991 ± 0.028
CGTGTGGGGT	1.01 ± 0.027
GATATTAGGC	0.9858 ± 0.009
TGGTAGAGGG	0.986 ± 0.014
TAGGTTGGTG	1 ± 0.036
ATGGAGGCG	1.03 ± 0.013
GCTGGGACTT	1.004 ± 0.0078

Sequence	switch fluorescence ratio
CAATGGATGA	1 ± 0.015
GCGGGGTCTG	0.985 ± 0.04
GAGGTTTGGG	0.982 ± 0.035
ATGGTCGTCT	0.971 ± 0.027
AAAGTAGTTA	0.991 ± 0.015
TTTGATATGC	1.116 ± 0.0054
ATGGGACAGT	0.988 ± 0.05
AAGCTCGTGC	0.973 ± 0.089
TGTTTGGTGG	0.968 ± 0.026
TTTATCAATT	0.991 ± 0.063
TTGGGCAATA	1.77 ± 0.35
CGTTGTACTT	1.01 ± 0.052
GGAAACTGGT	1.05 ± 0.069
TTGGTGGGTA	0.988 ± 0.013
TGCCCGCTGC	1.27 ± 0.017
AGGTTGTGAG	0.98 ± 0.034
GTGTCTTGGA	0.9893 ± 0.0052
AGTTTGCTAG	0.994 ± 0.034
ACTAAACGAG	1.062 ± 0.0078
AGCGGCACAC	1.073 ± 0.0095
TTGTTTCGGT	1.02 ± 0.063
TCGTTGGACT	1.01 ± 0.0029
GAAGTGCGAG	1.004 ± 0.008
AGGGGAGTGT	0.988 ± 0.029
CTAGTTAAGC	0.9892 ± 0.0035
